Measured values: patent publication US20210032312A1 (Janssen / Centocor, published 2021)

Legend:
In house human CD8A-Fc = molecular target: T1, In house human CD8A-Fc (human, UniProt P01732 22-182, limits assumed); test: SPR (ProteOn), captured hCD8A-Fc
T1 construct: Captured on goat anti-human Fc on a ProteOn GLC chip; also called hCD8A-Fc; recombinant human CD8 alpha; not shown: linker with flag (and polyhistidine) tag and Fc of human IgG1

[1] = molecular target: T2, cynomolgus monkey CD8A on primary cynomolgus monkey CD8+ T cells (cynomolgus monkey, UniProt P01732 23-235 (human entry)); test: flow cytometry, cyno CD8+ T cells, 2 uM FN3
T2 construct: also called Cyno CD8alpha

[2] = molecular target: T3, human CD8 alpha (CD8A) on primary human CD8+ T cells (human, UniProt P01732 22-235); test: flow cytometry, human CD8+ T cells, 2 uM FN3
T3 construct: whole, on cells; also called hCD8A
T3 sequence (P01732 22-235): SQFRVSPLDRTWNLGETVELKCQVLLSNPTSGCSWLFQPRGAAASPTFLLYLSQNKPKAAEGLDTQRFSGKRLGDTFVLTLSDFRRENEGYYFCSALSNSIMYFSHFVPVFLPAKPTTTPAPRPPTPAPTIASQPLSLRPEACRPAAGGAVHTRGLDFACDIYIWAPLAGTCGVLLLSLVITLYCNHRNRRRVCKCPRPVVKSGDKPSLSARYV

[3] = molecular target: T2, cynomolgus monkey CD8A on primary …; test: flow cytometry, cyno CD8+ T cells, 0.2 uM FN3
[4] = molecular target: T3, human CD8 alpha (CD8A) on primary human …; test: flow cytometry, human CD8+ T cells, 0.2 uM FN3
human CD8A-Fc (in house) = molecular target: T4, human CD8A-Fc (in house) (human, UniProt P01732 22-182, limits assumed); test: SPR (ProteOn), captured hCD8A-Fc
T4 construct: captured by goat anti-human Fc on the ProteOn chip; also called hCD8A-Fc; recombinant human CD8 alpha; not shown: linker/tag and Fc of human IgG1

[5] = molecular target: T5, cynomolgus monkey CD8 alpha on primary cynomolgus CD8+ T cells (cynomolgus monkey, UniProt P01732 23-235 (human entry)); test: flow cytometry, cyno CD8+ T cells
T5 construct: also called Cyno CD8alpha; cyno CD8A
Description: (§1) Binding of the 190 ELISA hits to human and cynomologous monkey primary CD8 T cells was assessed by flow cytometry. The FN3 domain molecules were diluted to 2 μM and 0.2 μM in PBS and incubated with human or cynomologous monkey CD8+ T cells in 96-well format. After 1 hour at 4 C, the cells were washed once with PBS and then resuspended with an anti-FN3 domain antibody (PAB25) solution. Following this incubation, the cells were washed twice with PBS and a PE conjugated secondary antibody and a viability dye were added. Finally, cells were washed and resuspended in PBS for flow cytometric analysis using a BD Canto Instrument. Cells were gating on live cells and median fluorescence intensity of the bound Centyrins (PE channel) was calculated using Cytobank software.

[6] = molecular target: T6, human CD8 alpha (CD8A) on primary human CD8+ T cells (human, UniProt P01732 22-235); test: flow cytometry, human CD8+ T cells
T6 construct: whole, on cells; also called hCD8A
Description: as §1
T6 sequence (P01732 22-235): as above

T2 sequence (P01732 other isoform, or with tags, fused parts or gaps limits assumed): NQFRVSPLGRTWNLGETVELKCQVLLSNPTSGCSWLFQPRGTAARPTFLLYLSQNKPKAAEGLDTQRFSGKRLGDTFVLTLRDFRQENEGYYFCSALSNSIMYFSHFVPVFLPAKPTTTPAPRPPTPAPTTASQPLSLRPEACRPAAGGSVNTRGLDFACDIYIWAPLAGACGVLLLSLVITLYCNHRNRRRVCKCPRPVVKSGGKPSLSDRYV
T5 sequence (P01732 other isoform, or with tags, fused parts or gaps limits assumed): as above
T4 sequence (P01732 22-182 limits assumed): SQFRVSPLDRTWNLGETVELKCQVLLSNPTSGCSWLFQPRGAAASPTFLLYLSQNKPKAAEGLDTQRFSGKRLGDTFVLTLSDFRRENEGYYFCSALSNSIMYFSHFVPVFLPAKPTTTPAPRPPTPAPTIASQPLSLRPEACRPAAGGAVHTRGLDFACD
T1 sequence (P01732 22-182 limits assumed): as above

koff (In house human CD8A-Fc) [s⁻¹] | Cyno T-cell Binding 2 uM (MFI) [1] [MFI] | Human T-cell Binding 2 uM (MFI) [2] [MFI] | Cyno T-cell Binding 0.2 uM (MFI) [3] [MFI] | Human T-cell Binding 0.2 uM (MFI) [4] [MFI] | koff (human CD8A-Fc (in house)) [s⁻¹] | Cyno T-cell Binding 0.2 uM (MFI) [5] [MFI] | Cyno T-cell Binding 2 uM (MFI) [5] [MFI] | Human T-cell Binding 0.2 uM (MFI) [6] [MFI] | Human T-cell Binding 2 uM (MFI) [6] [MFI] | Binder
– | – | – | – | – | 0.000109 | 20200 | 96500 | 6060 | 45500 | P283DR9P1364_B4 (designed binder, FN3 domain) LPAPKNLVVSRVTEDSARLSWTAPDAAFDSFAISYPEWPPPGEAIVLTVPGSERSYDLTGLKPGTEYWVIILGVKGGDQSWPLSAIFTT
– | – | – | – | – | 0.000514 | 16200 | 70400 | 4220 | 32300 | P283DR9P1364_D11 (designed binder, FN3 domain) LPAPKNLVVSRVTEDSARLSWTAPDAAFDSFDIAYPEWPPKGEAIVLTVPGSERSYDLTGLKPGTEYFVVIYGVKGGIHSAPLSAIFTT
– | – | – | – | – | 0.00661 | 365 | 2480 | 244 | 656 | P283DR9P1364_D8 (designed binder, FN3 domain) LPAPKNLVVSRVTEDSARLSWTAPDAAFDSFQIAYPETPIQGEAIVLTVPGSERSYDLTGLKPGTEYFVIIHGVKGGITSFPLSAIFTT
– | – | – | – | – | 0.0013 | 1590 | 22900 | 451 | 4260 | P283DR9P1364_B11 (designed binder, FN3 domain) LPAPKNLVVSRVTEDSARLSWTAPDAAFDSFYISYPEWEQLGEAIVLTVPGSERSYDLTGLKPGTEYFVVIYGVKGGALSAPLSAIFTT
– | – | – | – | – | 0.000825 | 5090 | 55700 | 1270 | 17600 | P283DR9P1364_E5 (designed binder, FN3 domain) LPAPKNLVVSRVTEDSARLSWTAPDAAFDSFWISYPEWPVPGEAIVLTVPGSERSYDLTGLKPGTEYWVIIQGVKGGKLSWPLSAIFTT
– | – | – | – | – | 0.00253 | 887 | 9130 | 317 | 1280 | P283DR9P1364_E3 (designed binder, FN3 domain) LPAPKNLVVSRVTEDSARLSWTAPDAAFDSFGIAYPELPIGGEAIVLTVPGSERSYDLTGLKPGTEYFVIIRGVKGGTLSPPLSAIFTT
– | – | – | – | – | 0.00243 | 2240 | 28700 | 442 | 5390 | P283DR9P1364_E7 (designed binder, FN3 domain) LPAPKNLVVSRVTEDSARLSWTAPDAAFDSFNIAYPEWPVRGEAIVLTVPGSERSYDLTGLKPGTEYWVIIYGVKGGDRSNPLSAIFTT
– | – | – | – | – | 0.00043 | 20000 | 88300 | 5240 | 42300 | P283DR9P1364_D9 (designed binder, FN3 domain) LPAPKNLVVSRVTEDSARLSWTAPDAAFDSFGISYPEWPPLGEAIVLTVPGSERSYDLTGLKPGTEYWVIIFGVKGGERSWPLSAIFTT
– | – | – | – | – | 0.00129 | 2710 | 34200 | 649 | 4940 | P283DR9P1364_C10 (designed binder, FN3 domain) LPAPKNLVVSRVTEDSARLSWTAPDAAFDSFQIAYPEWPKDGEAIVLTVPGSERSYDLTGLKPGTEYAVFIWGVKGGVYSNPLSAIFTT
– | – | – | – | – | 0.00139 | 3660 | 37400 | 2330 | 18900 | P283FR9P1366_H11 (designed binder, FN3 domain) LPAPKNLVVSRVTEDSARLSWTAPDAAFDSFQIQYLETAPDGEAIVLTVPGSERSYDLTGLKPGTEYYVWIPGVKGGAFSPLSAIFTT

The remaining lines, values behind:

Binder | koff (In house human CD8A-Fc) [s⁻¹] | Cyno T-cell Binding 2 uM (MFI) [1] [MFI] | Human T-cell Binding 2 uM (MFI) [2] [MFI] | Cyno T-cell Binding 0.2 uM (MFI) [3] [MFI] | Human T-cell Binding 0.2 uM (MFI) [4] [MFI] | koff (human CD8A-Fc (in house)) [s⁻¹] | Cyno T-cell Binding 0.2 uM (MFI) [5] [MFI] | Cyno T-cell Binding 2 uM (MFI) [5] [MFI] | Human T-cell Binding 0.2 uM (MFI) [6] [MFI] | Human T-cell Binding 2 uM (MFI) [6] [MFI]
P283BR9P1363_C4 (designed binder, FN3 domain) LPAPKNLVVSRVTEDSARLSWPIVNTPLHFDSFLIQYQESEKVGEAIVLTVPGSERSYDLTGLKPGTEYTVSIYGVDVQYTATGQPERSNPLSAIFTT | 0.000409 | 23400 | 9070 | 3270 | 2250 | – | – | – | – | –
P283BR9P1363_A8 (designed binder, FN3 domain) LPAPKNLVVSRVTEDSARLSWVRSDTARFFDSFLIQYQESEKVGEAIVLTVPGSERSYDLTGLKPGTEYTVSIYGVDVKYDIDSRPISSNPLSAIFTT | 0.000353 | 24200 | 11300 | 3450 | 2540 | – | – | – | – | –
P283DR9P1364_E8 (designed binder, FN3 domain) LPAPKNLVVSRVTEDSARLSWTAPDAAFDSFSIAYPEWPVHGEAIVLTVPGSERSYDLTGLKPGTEYFVIIYGVKGGVLSEPLSAIFTT | – | – | – | – | – | 0.000756 | 5510 | 59300 | 1180 | 14300
P283DR9P1364_B1 (designed binder, FN3 domain) LPAPKNLVVSRVTEDSARLSWTAPDAAFDSFYITYPEIPLGGEAIVLTVPGSERSYDLTGLKPGTEYFVVIYGVKGGLLSSPLSAIFTT | – | – | – | – | – | 0.00156 | 746 | 8620 | 666 | 1480
P283DR9P1364_A7 (designed binder, FN3 domain) LPAPKNLVVSRVTEDSARLSWTAPDAAFDSFRIAYPEWPVRGDAIVLTVPGSERSYDLTGLKPGTEYWVIIQGVKGGTDSFPLSAIFTT | – | – | – | – | – | 0.00197 | 2640 | 39900 | 435 | 8980
P283DR9P1364_A4 (designed binder, FN3 domain) LPAPKNLVVSRVTEDSARLSWTAPDAAFDSFYIAYPEWPVQGEAIVLTVPGSERSYDLTGLKPGTEYFVIIYGVKGGDWSEPLSAIFTT | – | – | – | – | – | 0.00109 | 6650 | 48300 | 1024 | 9490
P283AR9P1362_D2 (designed binder, FN3 domain) LPAPKNLVVSRVTEDSARLSWQRPKSGFFDSFLIQYQESEKVGEAIVLTVPGSERSYDLTGLKPGTEYTVSIYGVDVKYDIDSRPISSNPLSAIFTT | 0.000253 | 17200 | 8650 | 5330 | 2760 | – | – | – | – | –
P283AR9P1362_H11 (designed binder, FN3 domain) LPAPKNLVVSRVTEDSARLSWPKIQGQHFDSFLIQYQESEKVGEAIVLTVPGSERSYDLTGLKPGTEYTVSIYGVDVKYDIDSRPISSNPLSAIFTT | 0.00018 | 11600 | 5730 | 3660 | 2270 | – | – | – | – | –
P283AR9P1362_B2 (designed binder, FN3 domain) LPAPKNLVVSRVTEDSARLSWAKHPNSFDSFLIQYQESEKVGEAIVLTVPGSERSYDLTGLKPGTEYTVSIYGVDVVVNELNNPLFSNPLSAIFTT | 0.00016 | 38800 | 13600 | 6480 | 3500 | – | – | – | – | –
P283BR9P1363_D11 (designed binder, FN3 domain) LPAPKNLVVSRVTEDSARLSWNKKHDGQPTFDSFLIQYQESEKVGEAIVLTVPGSERSYDLTGLKPGTEYTVSIYGVDVVYEGSYPASSNPLSAIFTT | 0.000495 | 20600 | 8690 | 11600 | 2890 | – | – | – | – | –
P283AR9P1362_C6 (designed binder, FN3 domain) LPAPKNLVVSRVTEDSARLSWYPSDPPFDSFLIQYQESEKVGEAIVLTVPGSERSYDLTGLKPGTEYTVSIYGVPNYHSRRSYYYSNPLSAIFTT | 0.00109 | 17500 | 16000 | 5690 | 4150 | – | – | – | – | –
